The values that follow come from US20210277110A1 (Janssen / Centocor, published 2021).

For experiment [1], the target named is T1, Extracellular domain of cyno PD1 (cPD1-ECD) (Macaca fascicularis (cynomolgus)).
T1 construct: Expressed with a hexahistidine tag or as Fc fusion; also called cynoPD1-ECD; cynoPD-1-ECD
T1 chain: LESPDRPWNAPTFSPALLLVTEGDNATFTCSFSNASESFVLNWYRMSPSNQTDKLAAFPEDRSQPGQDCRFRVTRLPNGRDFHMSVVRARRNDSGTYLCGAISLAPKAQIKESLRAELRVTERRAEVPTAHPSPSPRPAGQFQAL
Description: SPR ProteOn, cynoPD1-ECD; RANGE high replicate.
Description: (§1) Affinity measurements using Surface Plasmon Resonance (SPR) were performed using a ProteOn XPR36 system. A biosensor surface was prepared by coupling a mixture of anti-IgG Fc modified alginate polymer layer surface of a GLC chip using the manufacturer instructions for amine-coupling chemistry. […] The collected data were processed and fitted to a Langmuir 1:1 binding model. The result for each mAb was reported in the format of kₒₙ (On-rate), koff (Off-rate) and KD (equilibrium dissociation constant).
(§2) STDEV were calculated for 3 or more replicates generated for human and cyno proteins. If less than 3 replicates were calculated, RANGE is indicated. RANGE is defined as the low and high values for the replicates tested. For samples without RANGE or STDEV, only one experiment was performed

The target in experiment [2] is T2, Extracellular domain of human PD1 (huPD1-ECD) (human, UniProt Q15116 25-169, biotinylated in the ligand inhibition assay (sites not given)).
T2 construct: Expressed with a hexahistidine tag or as Fc fusion; also called biotinylated PD-1
Description: MSD ligand inhibition, competitor coated huPDL1-ECD.

In experiment [3] the target is T2, Extracellular domain of human PD1 …. Description: MSD ligand inhibition, competitor coated huPDL2-ECD.
Description: (§3) The ligand inhibition assay design was MSD (Mescoscale Discovery) based. A MSD plate was directly coated with ligand (cynoPDL1-ECD, huPDL1-ECD or huPDL2-ECD) and incubated overnight at 4° C. The following day, the coating solution was removed and the plate was blocked. […] Depending on the panel of antibodies to be tested, the antibodies were tested as titrations or at a fixed concentration.
For experiment [4] the target is unchanged. Description: SPR ProteOn, huPD1-ECD; RANGE high replicate; RANGE high replicate.
Description: as §1, §2
Experiment [5] has as its target T1, Extracellular domain of cyno PD1 …. Description: SPR ProteOn, captured mAb, cynoPD1-ECD analyte.
In experiment [6] the target is T3, Full length human PD1 (huPD1) on cells (human, UniProt Q15116 25-288).
T3 construct: on T cells of human donors in the MLR and CMV assays (functional); also called PD-1 on Jurkat cells
Description: flow cytometry, PHA-stimulated Jurkat cells. A general note: In flow cytometry, cells or beads pass a laser one at a time.
Description: (§4) Jurkat cells were stimulated overnight with 20 ng/ml of PHA, harvested, washed, and checked for viability. The cells were then incubated at 6-10° C. for 45-60 minutes with various concentrations of test antibodies, washed and incubated at 6-10° C. for 45-60 minutes with FITC-labeled goat anti-human IgG. The cells were washed and fixed with BD Cytofix, refrigerated overnight and analyzed on a MACSQuant flow cytometer. The percentage of PD-1 positive cells at each antibody concentration was plotted vs log of the antibody concentration and EC₅₀ values were generated in Prism.

The target of experiment [7] is T2, Extracellular domain of human PD1 …. Description: SPR ProteOn, captured mAb, huPD1-ECD analyte.
Experiment [8] addresses T1, Extracellular domain of cyno PD1 …. Description: SPR ProteOn, cynoPD1-ECD; RANGE high replicate; RANGE high replicate.
Description: as §1, §2
The target is the same in experiment [9]. Description: SPR ProteOn, cynoPD1-ECD; RANGE low replicate.
Description: as §1, §2
The target in experiment [10] is T2, Extracellular domain of human PD1 …. Kind of experiment: SPR ProteOn, huPD1-ECD; RANGE low replicate.
Description: as §1, §2
For experiment [11] the target is unchanged. Description: SPR ProteOn, huPD1-ECD; RANGE high replicate.
Description: as §1, §2
Experiment [12] deals with T3, Full length human PD1 (huPD1) on cells. Kind of experiment: flow cytometry, PHA-stimulated Jurkat cells. This is another data set of the same source.
Description: as §4
The target of experiment [13] is T2, Extracellular domain of human PD1 …. Kind of experiment: MSD ligand inhibition, competitor coated cynoPDL1-ECD.
Experiment [14] concerns the target T1, Extracellular domain of cyno PD1 …. Description: SPR ProteOn, captured mAb, cynoPD1-ECD analyte.
Experiment [15] addresses T2, Extracellular domain of human PD1 …. Kind of experiment: MSD ligand inhibition, competitor coated cynoPDL1-ECD. This is another data set of the same source.
Description: as §3
Experiment [16] shares this target. Kind of experiment: SPR ProteOn, captured mAb; antigen species not given.
Experiment [17] shares this target. Kind of experiment: SPR ProteOn, captured mAb, huPD1-ECD analyte. This is another data set of the same source.
The target in experiment [18] is T1, Extracellular domain of cyno PD1 …. Kind of experiment: SPR ProteOn, cynoPD1-ECD; RANGE low replicate.
For experiment [19] the target is unchanged. Description: SPR ProteOn, cynoPD1-ECD; RANGE high replicate; RANGE high replicate.
Description: as §1
(§5) STDEV were calculated for 3 or more replicates generated for human and cyno proteins. If less than 3 replicates were calculated, RANGE was indicated. RANGE is defined as the low and high values for the replicates tested. For samples in the Table 10 or Table 11 without value indicated in RANGE or STDEV, only one experiment was performed.
Experiment [20] has the same target. Description: SPR ProteOn, cynoPD1-ECD; RANGE low replicate; RANGE low replicate.
Description: as §1
STDEV were calculated for 3 or more replicates generated for human and cyno proteins. If less than 3 replicates were calculated, RANGE was indicated. RANGE is defined as the low and high values for the replicates tested.
For experiment [21] the target is unchanged. Description: SPR ProteOn, cynoPD1-ECD; RANGE high replicate.
Description: as §1, §5
In experiment [22] the target is T4, Full length human TIM-3 on transfected cells (human, UniProt Q8TDQ0 22-301).
T4 construct: also called Human cells
Description: binding to cells transfected with human TIM-3.

Experiment [23] concerns the target T5, recombinant human TIM-3-Fc fusion protein (huTIM-3-Fc) (human, UniProt Q8TDQ0 22-200).
T5 construct: range 22-200; Bought from R&D Systems (NS0-derived); Deglycosylated for HDX-MS; also called recombinant human Fc-TIM-3 chimera; TIM-3 IgG1 Fc Chimera; not shown: IgG1 Fc of the bought chimera
Description: competition ELISA on coated Fc-TIM-3, competitor galectin-9. Background: ELISA stands for enzyme-linked immunosorbent assay.

The target in experiment [24] is T6, cyno TIM-3 on transfected cells (cyno, UniProt A0A2K5U3G7 22-294).
T6 construct: whole, on cells; also called Cyno cells
T6 sequence: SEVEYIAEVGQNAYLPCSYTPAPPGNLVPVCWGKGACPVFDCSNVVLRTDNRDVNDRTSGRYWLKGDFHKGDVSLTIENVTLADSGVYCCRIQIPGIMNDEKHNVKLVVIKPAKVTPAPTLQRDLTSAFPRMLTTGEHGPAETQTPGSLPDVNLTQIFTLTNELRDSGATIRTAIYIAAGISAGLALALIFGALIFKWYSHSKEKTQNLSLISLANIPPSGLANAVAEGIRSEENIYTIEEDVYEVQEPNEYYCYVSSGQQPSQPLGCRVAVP
Kind of experiment: binding to cells transfected with cyno TIM-3.

Like-named read-outs stand apart in the source and are kept apart here.

T2 sequence (Q15116 25-169 limits assumed): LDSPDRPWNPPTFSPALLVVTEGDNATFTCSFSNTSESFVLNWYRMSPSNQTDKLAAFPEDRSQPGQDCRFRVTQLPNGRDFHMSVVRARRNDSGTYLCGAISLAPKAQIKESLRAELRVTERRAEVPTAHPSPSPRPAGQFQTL
T3 sequence (Q15116 25-288 limits assumed): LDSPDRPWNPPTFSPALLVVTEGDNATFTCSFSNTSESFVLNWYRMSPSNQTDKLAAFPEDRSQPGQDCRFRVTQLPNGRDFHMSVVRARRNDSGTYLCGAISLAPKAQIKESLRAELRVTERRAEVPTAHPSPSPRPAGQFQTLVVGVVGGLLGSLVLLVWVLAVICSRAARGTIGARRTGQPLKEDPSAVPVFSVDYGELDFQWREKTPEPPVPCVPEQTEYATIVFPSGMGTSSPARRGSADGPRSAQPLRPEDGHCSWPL

B1: PD1B71 (antibody, V domains shown)
VH: QVQLVQSGAEVKKPGSSVKVSCKASGGTFSSYAISWVRQAPGQGLEWMGGIIPIFGTANYAQKFQGRVTITADESTSTAYMELSSLRSEDTAVYYCARGTLDRTGHLDYWGQGTLVTVSS
VL: EIVLTQSPATLSLSPGERATLSCRASQSVSSYLAWYQQKPGQAPRLLIYDASNRATGIPARFSGSGSGTDFTLTISSLEPEDFAVYYCQQRSNWPLTFGQGTKVEIK
notes: Tested as IgG2sigma/kappa; also called PD1H108/PH9L3
As usually defined, the Kd is the constant that tells how readily two partners part at equilibrium. A higher Kd goes with a looser complex. One may read the IC50 as the point on the concentration scale where inhibition reaches its midpoint. Higher therefore signals a need for much substance. As usually defined, the koff is a measure of how fast the partners let go of each other. High values mean a short-lived complex, low ones a long-lived complex. A word on the kon: it is the second-order rate constant of association. Low values mean slow association, high ones fast association. What is called EC50 is the concentration needed to bring the measured effect to its halfway point. Read a high EC50 as a less potent agent. Consider B1, for which the Kd in [1] worked out at 61.4 nM; in experiment [5], 66.8 nM; in [7] it was 23.5 nM; in experiment [9], 44.4 nM; in experiment [10], 22.4 nM; in [11] it was 24.7 nM. In addition, the Kd in experiment [14] stood at 52 nM; in experiment [16] it was 120 nM; in [17] it was 49.9 nM. Further, the values for the IC50 in [2], in experiment [3] and in [15] were 0.024 µg/mL, 0.035 µg/mL and 0.014 to 0.015 µg/mL, respectively. The koff came out at 0.023 s⁻¹ in experiment [4]; 0.0203 s⁻¹ in experiment [5]; 0.0225 s⁻¹ in [7]; 0.0207 s⁻¹ in [8]; 0.0185 s⁻¹ in experiment [9]; 0.0219 s⁻¹ in experiment [10]. In addition, the koff in [14] stood at 0.0196 s⁻¹; in [16], 0.0277 s⁻¹; in experiment [17], 0.0273 s⁻¹. Also, the kon in experiment [5] came out at 304000 M⁻¹ s⁻¹; in [7], 955000 M⁻¹ s⁻¹; in experiment [8] it was 417000 M⁻¹ s⁻¹; in experiment [9] it was 337000 M⁻¹ s⁻¹; in experiment [10], 933000 M⁻¹ s⁻¹; in experiment [11] it was 976000 M⁻¹ s⁻¹. The kon in experiment [14] amounted to 377000 M⁻¹ s⁻¹; in [16], 231000 M⁻¹ s⁻¹; in experiment [17], 548000 M⁻¹ s⁻¹. Moreover, the EC50 in experiment [6] was 0.13 µg/mL; in [12], 0.13 to 0.47 µg/mL. The “percentage ligand not blocked at 1 µg/ml” value in experiment [13] turned out to be 6%. Further, the “percentage ligand not blocked at 10 µg/ml” value in experiment [13] is 9%.

B2: PD1B175 (antibody, V domains shown)
VH: QVQLVQSGAEVKKPGSSVKVSCKASGGTFKSYVIHWVRQAPGQGLEWMGGIIPIFGTANYAQKFQGRVTITADESTSTAYMELSSLRSEDTAVYYCARGYVRATGMLDYWGQGTLVTVSS
VL: EIVLTQSPATLSLSPGERATLSCRASQSVSSYLAWYQQKPGQAPRLLIYDASNRATGIPARFSGSGSGTDFTLTISSLEPEDFAVYYCQQRSNWPLTFGQGTKVEIK
notes: Tested as IgG2sigma; also called PD1H163/PH9L3
For the molecule B2, the Kd turned out to be 26 nM in experiment [18], 30 nM in [5], 34 nM in experiment [21] and 23 nM in experiment [17]. The kon in experiment [18] came out at 198000 M⁻¹ s⁻¹; in [19], 230000 M⁻¹ s⁻¹; in experiment [5], 214000 M⁻¹ s⁻¹; in [17], 422000 M⁻¹ s⁻¹. For the same molecule, the koff in [19] was 0.00673 s⁻¹; in [5], 0.0064 s⁻¹; in experiment [20] it was 0.00606 s⁻¹; in experiment [17], 0.00972 s⁻¹. The molecule further had an EC50 in [6] of 0.09 µg/mL. In experiment [13], the “percentage ligand not blocked at 1 µg/ml” value was 6%. Further, the “percentage ligand not blocked at 10 µg/ml” value in experiment [13] was determined as 5%.

B3: PD1B162 (antibody, human IgG2, kappa, V domains shown)
VH: QVQLVQSGAEVKKPGSSVKVSCKASGGTFSSYAISWVRQAPGQGLEWMGGIIPIFDTANYAQKFQGRVTITADESTSTAYMELSSLRSEDTAVYYCARPGLAAAYDTGNLDYWGQGTLVTVSS
VL: EIVLTQSPATLSLSPGERATLSCRASQSVDSYLAWYQQKPGQAPRLLIYDASNRATGIPARFSGSGSGTDFTLTISSLEPEDFAVYYCQQREYWPLTFGQGTKVEIKR
notes: IgG2sigma/kappa; VH 42, VL 52; also called PD1H131/PD1L67
As for B3, the Kd in experiment [18] was found to be 2.5 nM; in [5] it was 2.53 nM; in experiment [21] it was 2.6 nM; in experiment [17], 5.95 nM. In addition, the kon was 384000 M⁻¹ s⁻¹ in [18], 387000 M⁻¹ s⁻¹ in experiment [5], 389000 M⁻¹ s⁻¹ in [21] and 649000 M⁻¹ s⁻¹ in [17]. Also, the koff was 0.000998 s⁻¹ in experiment [19], 0.000979 s⁻¹ in experiment [5], 0.000959 s⁻¹ in [20] and 0.00386 s⁻¹ in experiment [17]. The molecule further had an EC50 in experiment [6] of 0.05 µg/mL. For the same molecule, in experiment [13], the “percentage ligand not blocked at 1 µg/ml” value was 7%. Also, the “percentage ligand not blocked at 10 µg/ml” value in experiment [13] was found to be 6%.

B4: TM3B105 (antibody, human IgG2, kappa, V domains shown)
VH: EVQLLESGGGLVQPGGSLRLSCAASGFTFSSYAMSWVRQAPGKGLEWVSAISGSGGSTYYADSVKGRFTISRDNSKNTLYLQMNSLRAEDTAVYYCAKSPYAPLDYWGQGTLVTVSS
VL: EIVLTQSPATLSLSPGERATLSCRASQSVNDYLAWYQQKPGQAPRLLIYDASNRATGIPARFSGSGSGTDFTLTISSLEPEDFAVYYCQQGGHAPITFGQGTKVEIKR
notes: IgG2sigma/kappa; VH 146, VL 156; also called TM3H24/TM3L33
As to B4, the EC50 was 0.46 µg/mL in [22] and 0.03 µg/mL in experiment [24]. The “Galectin 9 Inhibition, % inhibition (maximal)” value in [23] turned out to be 69.8%.

B5: PD1B164 (antibody, human IgG2, kappa, V domains shown)
VH: QVQLVQSGAEVKKPGSSVKVSCKASGGTFSSYAISWVRQAPGQGLEWMGGIIPIFDTANYAQKFQGRVTITADESTSTAYMELSSLRSEDTAVYYCARPGLAAAYDTGNLDYWGQGTLVTVSS
VL: EIVLTQSPATLSLSPGERATLSCRASQSVRSYLAWYQQKPGQAPRLLIYDASYRATGIPARFSGSGSGTDFTLTISSLEPEDFAVYYCQQRDYWPLTFGQGTKVEIKR
notes: IgG2sigma/kappa; VH 42, VL 53; also called PD1H131/PD1L71
Turning to B5, the Kd in [18] stood at 1.06 nM; in experiment [5], 1.07 nM; in [21] it was 1.09 nM; in experiment [17], 2.92 nM. For the same molecule, the kon in experiment [18] stood at 267000 M⁻¹ s⁻¹; in experiment [5], 267000 M⁻¹ s⁻¹; in experiment [21], 267000 M⁻¹ s⁻¹; in [17] it was 448000 M⁻¹ s⁻¹. The koff amounted to 0.000291 s⁻¹ in [19], 0.000287 s⁻¹ in [5], 0.000282 s⁻¹ in [20] and 0.00131 s⁻¹ in [17]. The same molecule registered a concentration for a half-maximal effect (EC50) in [6] of 0.06 µg/mL. Also, the “percentage ligand not blocked at 1 µg/ml” value in experiment [13] worked out at 6%. Moreover, the “percentage ligand not blocked at 10 µg/ml” value in experiment [13] stood at 3%.

B6: TM3B196 (antibody, V domains shown)
VH: QVQLKESGPGLVAPSQSLSITCTISGFSLTSYGVHWVRQPPGKGLEWLVVIWSDGSTTYNSALKSRLSISKDNSKSQVFLKMNSLQTDDTAMYYCARQANYRYDSAMDYWGQGTSVTVSS
VL: DIQMTQSPASLAVSLGQRATISCKASQSVDYDGDSYMNWYQQKPGQPPKLLIYTAANLQSGIPARFSGSGSGTDFTLNIHPVEEEDAATYYCQQSNEDPFTFGSGTKLEIK
notes: Mouse-derived variable domains; also called TM3H102/TM3L64
As for B6, the “Galectin 9 Inhibition, % inhibition (maximal)” value in experiment [23] was found to be 57%.
